The Kd is a measure of binding affinity in units of concentration. Read a low Kd as higher affinity. Broadly, the koff is the rate constant with which the complex falls apart. Low readings indicate a long-lived complex, high ones a short-lived complex.

Kd and koff data for one molecule are collected here from patent US20090304686A1, “INTERFERING IN ACTIVATION OF AN IMMUNE CELL BY INFLUENCING INTERACTION OF LAIR AND COLLAGEN” (UNIVERSOTAIR MEDISCH CENTRUM UTRECHT, priority 2006, published 2009).

Assay [1] addresses collagen I (purified, Sigma; acid-soluble human collagen type I in BIAcore) (human) (UniProt P02452). In words: SPR (BIAcore), equilibrium binding to immobilised collagen I. Background: In SPR one partner is held on a chip, and binding of the other changes the refractive index at the surface.
Assay [2] has the same target. In words: SPR (BIAcore), biphasic dissociation from collagen I, component Koff1.
Assay [3] has the same target. In words: SPR (BIAcore), biphasic dissociation from collagen I, component Koff2.

B1: hLAIR-1-IgG (extracellular domain of human LAIR-1 fused to the Fc region of human IgG1) (Fc fusion, UniProt Q6GTX8 22-165, looked up, not shown: a dimerising Fc or GST)
chain: QEEDLPRPSISAEPGTVIPLGSHVTFVCRGPVGVQTFRLERDSRSTYNDTEDVSQASPSESEARFRIDSVREGNAGLYRCIYYKPPKWSEQSDYLELLVKESSGGPDSPDTEPGSSAGPTQRPSDNSHNEHAPASQGLKAEHLY
B1: the Kd in assay [1] was found to be 14.2 nM. The koff in assay [2] turned out to be 0.000142 s⁻¹; in assay [3], 0.00187 s⁻¹.
